Reference: publication doi:10.1101/2024.09.08.611708 (2024)

Target: MpATG8A (M. polymorpha)
Assay: ITC

Sequence of MpATG8A (M. polymorpha) (chain, as listed by the source): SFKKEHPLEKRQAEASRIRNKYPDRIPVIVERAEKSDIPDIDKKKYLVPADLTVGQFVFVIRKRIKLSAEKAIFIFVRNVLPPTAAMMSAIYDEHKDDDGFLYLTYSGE

B1: canonical AIM peptide (AIM wt) (peptide)
chain: DWEIV
- Kd: 55.6 nM
